Results: patent publication US20100105622A1 (UNIVERSIDAD DE BARCELONA, published 2010)

Target: Bovine Serum Albumin (BSA) (bovine, UniProt P02769 25-607)
Assay: ELISA, BSA coated on the plate, rsCD6 added at several concentrations, detected with biotin-labeled anti-CD6 mAb (MAE) and streptavidin-HRP
Procedure: Twelve μg of LPS purified from E. coli O111:B4 (Sigma), Zymosan from Saccharomyces cerevisae (Sigma), peptidoglycan purified from S. aureus (Fluka) or Bovine Serum Albumin (BSA), were used to coat 96-well microtiter plates (Nunc, Roskilde, Denmark) in PBS, overnight at 4° C. Non-specific binding to the wells was prevented by the addition of PBS containing 1% BSA for 1 h at room temperature. Several concentrations of rsCD6 were then added to the wells and incubated for 3 h at room temperature. Bound protein was detected by the addition of a 1:200 dilution of biotin-labeled mAb anti-CD6 (MAE) for 1 h at RT, followed by a 1:1000 dilution of HRP-labeled streptavidin (DAKO, Glostrup, Denmark), which was incubated for 30 min at RT. Between each incubation step, unbound protein or HRP-streptavidin was washed off three times with PBS plus 0.01% Tween-20. Color was developed by adding 3,3′,5,5′-tetramethylbenzidine liquid substrate (Sigma), and the absorbance was read at 405 nm. The assay was repeated three times with similar results.

Bovine Serum Albumin (BSA), sequence (P02769 25-607 limits assumed): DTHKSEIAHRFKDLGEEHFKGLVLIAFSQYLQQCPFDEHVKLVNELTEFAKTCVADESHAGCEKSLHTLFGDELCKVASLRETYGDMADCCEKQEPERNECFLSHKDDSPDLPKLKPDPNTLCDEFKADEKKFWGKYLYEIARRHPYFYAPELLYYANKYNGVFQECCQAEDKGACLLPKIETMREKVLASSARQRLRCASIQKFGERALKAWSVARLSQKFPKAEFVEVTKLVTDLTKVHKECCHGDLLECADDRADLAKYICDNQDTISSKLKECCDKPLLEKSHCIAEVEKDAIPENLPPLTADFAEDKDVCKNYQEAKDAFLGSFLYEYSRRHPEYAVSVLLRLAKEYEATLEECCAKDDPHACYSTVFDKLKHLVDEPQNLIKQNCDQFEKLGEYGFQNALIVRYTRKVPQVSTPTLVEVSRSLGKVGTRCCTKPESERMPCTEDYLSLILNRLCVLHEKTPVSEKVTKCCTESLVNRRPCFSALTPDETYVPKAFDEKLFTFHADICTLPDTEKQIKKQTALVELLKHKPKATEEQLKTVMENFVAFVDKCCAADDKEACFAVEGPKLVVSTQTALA

B1: rsCD6, recombinant soluble ectodomain of human CD6 (amino acids D25 to E384, immature protein numbering) (receptor, UniProt P30203 25-384, looked up)
chain: DQLNTSSAESELWEPGERLPVRLTNGSSSCSGTVEVRLEASWEPACGALWDSRAAEAVCRALGCGGAEAASQLAPPTPELPPPPAAGNTSVAANATLAGAPALLCSGAEWRLCEVVEHACRSDGRRARVTCAENRALRLVDGGGACAGRVEMLEHGEWGSVCDDTWDLEDAHVVCRQLGCGWAVQALPGLHFTPGRGPIHRDQVNCSGAEAYLWDCPGLPGQHYCGHKEDAGAVCSEHQSWRLTGGADRCEGQVEVHFRGVWNTVCDSEWYPSEAKVLCQSLGCGTAVERPKGLPHSLSGRMYYSCNGEELTLSNCSWRFNNSNLCSQSLAARVLCSASRSLHNLSTPEVPASVQTVTIE
notes: range 25-384; Used as unpurified serum-free culture supernatant to coat wells in the gp120 ELISA; also called recombinant soluble CD6; rCD6
Question: Does B1 bind?
Answer: no binding
